Reference: patent US20090041777A1 (UNIVERSITY OF MASSACHUSETTS, published 2009)

How the values were obtained:
[1] = target: T1, ERA-CO glycoprotein (codon-optimized full-length rabies G glycoprotein, ERA strain, amino acids 1-524, … (rabies virus, ERA strain, UniProt P03524 20-524)); assay: flow cytometry on transfected 293T cells, PE anti-human IgG
T1 sequence: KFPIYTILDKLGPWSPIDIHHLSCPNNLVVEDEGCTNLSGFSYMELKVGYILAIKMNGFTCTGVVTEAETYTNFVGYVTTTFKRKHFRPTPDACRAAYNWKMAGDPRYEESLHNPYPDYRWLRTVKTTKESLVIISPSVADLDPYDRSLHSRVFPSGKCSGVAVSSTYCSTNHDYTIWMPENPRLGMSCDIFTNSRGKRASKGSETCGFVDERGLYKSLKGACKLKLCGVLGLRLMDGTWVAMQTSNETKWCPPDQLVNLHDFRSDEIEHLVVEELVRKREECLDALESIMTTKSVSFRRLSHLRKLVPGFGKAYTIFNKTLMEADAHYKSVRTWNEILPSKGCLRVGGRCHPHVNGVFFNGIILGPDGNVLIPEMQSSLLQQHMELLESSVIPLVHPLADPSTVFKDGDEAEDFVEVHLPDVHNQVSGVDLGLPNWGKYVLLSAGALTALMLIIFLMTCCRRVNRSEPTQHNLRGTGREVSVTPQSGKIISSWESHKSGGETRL

[2] = target: T2, ERA-CO20-439 (secreted soluble ectodomain of codon-optimized ERA rabies G glycoprotein, Myc/His tagged) (rabies virus, ERA strain, UniProt P03524 20-439); assay: Biacore (SPR) on the ectodomain region of codon-optimized rabies G glycoprotein
T2 sequence: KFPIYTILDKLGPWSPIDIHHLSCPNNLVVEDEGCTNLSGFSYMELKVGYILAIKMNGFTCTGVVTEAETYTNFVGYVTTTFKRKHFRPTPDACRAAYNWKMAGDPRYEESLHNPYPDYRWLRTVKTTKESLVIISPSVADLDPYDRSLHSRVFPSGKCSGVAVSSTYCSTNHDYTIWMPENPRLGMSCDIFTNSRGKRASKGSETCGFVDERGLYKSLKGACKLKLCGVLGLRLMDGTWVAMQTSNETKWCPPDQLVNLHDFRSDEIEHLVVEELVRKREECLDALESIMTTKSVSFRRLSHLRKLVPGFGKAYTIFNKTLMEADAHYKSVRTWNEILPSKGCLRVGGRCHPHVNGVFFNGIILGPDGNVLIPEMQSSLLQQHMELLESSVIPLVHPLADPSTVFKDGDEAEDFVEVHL

B1: HuMab 17C7 (antibody, V domains shown)
VH: QVQLVESGGGVVQPGRSLRLSCAASGFTFSTYAMHWVRQAPGKGLEWVAVVSYDGRTKDYADSVKGRFTISRDNSKNTLYLQMNSLRTEDTAVYFCARERFSGAYFDYWGQGTLVTVSS
VL: EIVLTQSPATLSLSPGERATLSCRASQSVSSYLAWYQQKPGQAPRLLIYDASNRATGIPARFSGSGSGTDFTLTISSLEPEDFAVYSCQQRNNWPPTFGGGTKVEIK
EC50 (read off the curve) [1]: ~30 nM
Kd [2]: ≤ 13.6 nM
